According to patent publication US20040241778:

Key:
[1] = target: IGFBP-3 (commercially available, upstate biotechnology), P17936
[2] = target: IGFBP-5 (commercially available, upstate biotechnology), P24593
[3] = target: IGFBP-5-FLAG protein (full-length IGFBP-5 with the FLAG tag of SEQ ID NO: 12 at the C-terminus), P24593
Sequence of IGFBP-5-FLAG protein (full-length IGFBP-5 with the FLAG tag of SEQ ID NO: 12 at the C-terminus), P24593 (P24593 other isoform, or with tags, fused parts or gaps): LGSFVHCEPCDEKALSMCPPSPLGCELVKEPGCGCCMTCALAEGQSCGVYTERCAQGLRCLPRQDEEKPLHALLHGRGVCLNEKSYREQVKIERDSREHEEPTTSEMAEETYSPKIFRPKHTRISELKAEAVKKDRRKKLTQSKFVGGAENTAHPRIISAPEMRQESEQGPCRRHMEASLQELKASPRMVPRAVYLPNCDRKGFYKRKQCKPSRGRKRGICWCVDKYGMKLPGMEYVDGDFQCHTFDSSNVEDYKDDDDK

Sequence of IGFBP-5 (commercially available, upstate biotechnology), P24593 (P24593 21-272): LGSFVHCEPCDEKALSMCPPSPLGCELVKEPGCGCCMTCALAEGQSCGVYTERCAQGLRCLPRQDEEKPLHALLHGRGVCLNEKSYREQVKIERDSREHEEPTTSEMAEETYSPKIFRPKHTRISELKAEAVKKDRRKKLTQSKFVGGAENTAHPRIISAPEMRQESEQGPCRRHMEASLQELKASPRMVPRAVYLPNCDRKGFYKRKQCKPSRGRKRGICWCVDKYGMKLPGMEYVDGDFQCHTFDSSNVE
Sequence of IGFBP-3 (commercially available, upstate biotechnology), P17936 (P17936 28-291): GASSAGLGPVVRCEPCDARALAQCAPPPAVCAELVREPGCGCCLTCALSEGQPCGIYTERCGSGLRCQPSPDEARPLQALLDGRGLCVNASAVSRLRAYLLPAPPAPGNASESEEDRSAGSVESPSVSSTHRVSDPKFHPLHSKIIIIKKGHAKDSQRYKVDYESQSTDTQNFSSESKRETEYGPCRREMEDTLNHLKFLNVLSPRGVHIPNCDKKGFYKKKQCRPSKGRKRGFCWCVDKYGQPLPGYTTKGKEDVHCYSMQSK

B1: MD8S-FLAG protein (extracellular region of human MD8, amino acids 1 to 646 of SEQ ID NO: 2, with a C-terminal FLAG tag) (protein)
chain: IAPSRPWALMEQYEVVLPRRLPGPRVRRALPSHLGLHPERVSYVLGATGHNFTLHLRKNRDLLGSGYTETYTAANGSEVTEQPRGQDHCFYQGHVEGYPDSAASLSTCAGLRGFFQVGSDLHLIEPLDEGGEGGRHAVYQAEHLLQTAGTCGVSDDSLGSLLGPRTAAVFRPRPGDSLPSRETRYVELYVVVDNAEFQMLGSEAAVRHRVLEVVNHVDKLYQKLNFRVVLVGLEIWNSQDRFHVSPDPSVTLENLLTWQARQRTRRHLHDNVQLITGVDFTGTTVGFARVSAMCSHSSGAVNQDHSKNPVGVACTMAHEMGHNLGMDHDENVQGCRCQERFEAGRCIMAGSIGSSFPRMFSDCSQAYLESFLERPQSVCLANAPDLSHLVGGPVCGNLFVERGEQCDCGPPEDCRNRCCNSTTCQLAEGAQCAHGTCCQECKVKPAGELCRPKKDMCDLEEFCDGRHPECPEDAFQENGTPCSGGYCYNGACPTLAQQCQAFWGPGGQAAEESCFSYDILPGCKASRYRADMCGVLQCKGGQQPLGRAICIVDVCHALTTEDGTAYEPVPEGTRCGPEKVCWKGRCQDLHVYRSSNCSAQCHNHGVCNHKQECHCHAGWAPPHCAKLLTEDYKDDDDK
activity of digesting IGFBP-3 (overnight reaction at 37 C, SDS-PAGE and western blot) [1]: a new band of 25 kDa was detected in the case of IGFBP-3
activity of digesting IGFBP-5 (overnight reaction at 37 C, SDS-PAGE and western blot) [2]: new plural bands within the range of 12 to 25 kDa were detected in the case of IGFBP-5
activity of digesting recombinant IGFBP-5 (overnight reaction at 37 C, SDS-PAGE and western blot with biotinylated M2 antibody) [3]: recombinant IGFBP-5, which was detected in the control without the MD8S enzyme solution, was made to disappear by adding the MD8S enzyme solution
